Measured values from PMC4565128.

Biological target: Aldehyde dehydrogenase 7A1 (full-length recombinant human cytosolic ALDH7A1 isoform 2) (human)
Test: SAXS

- stoichiometry N: 4
Substance: Aldehyde dehydrogenase 7A1 (full-length recombinant human cytosolic ALDH7A1 isoform 2) (enzyme)
